Experimental data reported in patent US20240228562A1 (Pieris, published 2024).

T1: cynomolgus CTGF (cynomolgus, UniProt I7G525 27-349)
T1 construct: also called cyCTGF
T1 sequence: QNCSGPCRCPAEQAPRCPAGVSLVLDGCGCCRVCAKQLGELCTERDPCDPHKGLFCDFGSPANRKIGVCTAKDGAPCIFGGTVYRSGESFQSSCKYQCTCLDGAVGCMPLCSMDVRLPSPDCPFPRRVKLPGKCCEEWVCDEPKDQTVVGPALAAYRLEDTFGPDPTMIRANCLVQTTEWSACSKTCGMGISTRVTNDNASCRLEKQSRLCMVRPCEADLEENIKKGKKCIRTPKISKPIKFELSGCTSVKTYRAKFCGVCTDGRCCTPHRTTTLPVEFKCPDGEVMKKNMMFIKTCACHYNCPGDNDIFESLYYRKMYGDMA

T2: recombinant rat CTGF protein (R&D Systems) (rat, UniProt Q9R1E9 25-347)
T2 construct: Bought; also called rCTGF
T2 sequence: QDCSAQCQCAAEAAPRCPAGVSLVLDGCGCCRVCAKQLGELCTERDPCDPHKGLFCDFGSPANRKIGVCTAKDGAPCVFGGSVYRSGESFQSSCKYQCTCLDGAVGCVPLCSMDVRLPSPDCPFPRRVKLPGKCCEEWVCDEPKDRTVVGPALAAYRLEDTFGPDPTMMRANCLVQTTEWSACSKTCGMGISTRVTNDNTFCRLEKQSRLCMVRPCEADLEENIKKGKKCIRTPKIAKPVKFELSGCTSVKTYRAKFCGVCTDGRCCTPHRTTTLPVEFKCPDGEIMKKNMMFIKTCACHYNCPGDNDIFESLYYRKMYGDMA

T3: mouse CTGF (Abbexa) (mouse, UniProt P29268 26-348, limits assumed)
T3 construct: also called Murine CTGF; mCTGF
T3 sequence (looked up): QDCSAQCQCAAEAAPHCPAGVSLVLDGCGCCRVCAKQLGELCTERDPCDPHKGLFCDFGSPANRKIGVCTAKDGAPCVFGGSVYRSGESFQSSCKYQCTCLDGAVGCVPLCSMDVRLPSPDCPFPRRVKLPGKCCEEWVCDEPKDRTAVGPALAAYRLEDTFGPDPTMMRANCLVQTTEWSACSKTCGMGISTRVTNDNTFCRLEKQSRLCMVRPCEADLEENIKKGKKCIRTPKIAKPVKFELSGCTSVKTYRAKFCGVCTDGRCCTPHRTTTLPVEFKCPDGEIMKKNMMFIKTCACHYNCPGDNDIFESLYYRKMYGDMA

T4: recombinant human CTGF protein (R&D Systems, SEQ ID NO: 79) (human, UniProt P29279 27-349)
T4 construct: Bought; also called human CTGF/CNN2; huCTGF
T4 sequence: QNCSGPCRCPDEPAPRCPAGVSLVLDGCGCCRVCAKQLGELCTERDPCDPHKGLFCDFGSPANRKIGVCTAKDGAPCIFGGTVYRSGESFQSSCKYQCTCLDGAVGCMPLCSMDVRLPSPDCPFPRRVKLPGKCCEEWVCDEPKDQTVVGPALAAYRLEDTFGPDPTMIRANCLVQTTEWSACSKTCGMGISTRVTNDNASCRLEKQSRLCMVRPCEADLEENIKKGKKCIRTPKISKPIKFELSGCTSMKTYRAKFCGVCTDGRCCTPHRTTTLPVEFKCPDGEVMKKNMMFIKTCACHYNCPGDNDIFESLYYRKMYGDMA


Tests used:
[1] = biological target: T5, recombinant human CTGF-Fc protein (Creative Biomart) (human); assay: SPR (Biacore)
T5 construct: Bought; also called human CTGF with a human IgG1 Fc Tag
Method: (§1) The binding of exemplary lipocalin muteins to human (Creative Biomart), cynomolgus, rat (R&D Systems) and mouse CTGF (Abbexa) was determined by SPR using a Biacore instrument (Cytiva, formerly GE Healthcare). Some targets were fused to a human IgG1 Fc tag, and captured via the anti-human IgG antibody kit, others were directly immobilized.
(§2) For some measurements, human CTGF with a human IgG1 Fc Tag or rat or murine CTGF without a tag were directly immobilized to a CM5 Chip. The carboxyl groups on the chip were activated using 1-ethyl-3-(3-dimethylaminopropyl)-carbodiimide (EDC) and N-hydroxysuccinimide (NHS). […] Residual non-reacted NHS-esters were blocked by passing a solution of 1 M ethanolamine across the surface. The reference channel was activated/deactivated. For the capture setting, targets with an IgG Fc Tag at 0.25-2.5 μg/mL in HBS-EP+ buffer were captured by the anti-human IgG-Fc antibody at the chip surface for 180 s at a flow rate of 10 μL/min.
(§3) The binding assay was carried out with a contact time of 180 s, a dissociation time of 900-3600 s and a flow rate of 30 μL/min. All measurements were performed at 25° C. […] For the directly immobilized targets, the same regeneration conditions were used. Prior to the protein measurements, three startup cycles were performed for conditioning purposes.

cynomolgus CTGF = biological target: T1, cynomolgus CTGF; assay: SPR (Biacore)
Method: as §1, §2, §3

[2] = biological target: T2, recombinant rat CTGF protein (R&D …); assay: SPR (Biacore)
Method: as §1, §2, §3

mouse CTGF (Abbexa) = biological target: T3, mouse CTGF (Abbexa); assay: SPR (Biacore)
Method: as §1, §2, §3

[3] = biological target: T4, recombinant human CTGF protein (R&D …); assay: HTRF, 1 nM biotinylated human CTGF
Method: Binding of some fusion proteins was tested by a Homogeneous Time Resolved Fluorescence (HTRF assay). In detail, 1 nM of biotinylated human CTGF (R&D Systems) was incubated for 1 h with a titration of some lipocalins starting at 5 nM in 384 Flat Bottom White Polystyrol microtiter plate (Greiner). Samples were diluted in PBS containing 0.1% Tween 20 and 2% BSA. As donor, Streptavidin-Terbium at a concentration of 0,006 μg/mL was used, the acceptor was 0.2 μg/mL anti-His-d2 (both CisBio). After another 1 h of incubation, the fluorescence intensity of the donor and acceptor on the plate was read using a fluorescence microplate reader M1000 (Tecan) with the standard settings recommended by CisBio. The calculated ratio of signals was used for the curve fitting performed in GraphPad Prism 7 software.

T5 sequence (chain, as listed by the source limits assumed): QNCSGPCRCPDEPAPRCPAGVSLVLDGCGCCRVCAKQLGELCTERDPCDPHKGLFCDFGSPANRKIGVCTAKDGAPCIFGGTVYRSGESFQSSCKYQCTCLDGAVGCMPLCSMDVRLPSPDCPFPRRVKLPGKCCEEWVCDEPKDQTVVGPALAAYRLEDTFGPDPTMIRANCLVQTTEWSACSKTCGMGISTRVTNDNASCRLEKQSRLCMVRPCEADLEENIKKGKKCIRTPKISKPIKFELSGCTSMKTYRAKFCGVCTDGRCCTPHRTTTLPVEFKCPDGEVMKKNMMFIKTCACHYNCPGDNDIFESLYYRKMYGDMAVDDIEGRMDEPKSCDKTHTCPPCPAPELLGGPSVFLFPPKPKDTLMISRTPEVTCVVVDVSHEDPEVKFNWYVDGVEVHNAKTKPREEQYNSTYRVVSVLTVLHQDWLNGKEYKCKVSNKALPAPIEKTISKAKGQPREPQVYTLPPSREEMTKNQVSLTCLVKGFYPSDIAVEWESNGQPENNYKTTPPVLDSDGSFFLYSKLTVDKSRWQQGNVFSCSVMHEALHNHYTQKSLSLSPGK

| Binder | Kd [1] [pM] | koff [1] [s⁻¹] | kon [1] [M⁻¹ s⁻¹] | Kd (cynomolgus CTGF) [pM] | koff (cynomolgus CTGF) [s⁻¹] | kon (cynomolgus CTGF) [M⁻¹ s⁻¹] | Kd [2] [pM] | koff [2] [s⁻¹] | kon [2] [M⁻¹ s⁻¹] | Kd (mouse CTGF (Abbexa)) [pM] | koff (mouse CTGF (Abbexa)) [s⁻¹] | kon (mouse CTGF (Abbexa)) [M⁻¹ s⁻¹] | EC50 [3] [pM] |
| --- | --- | --- | --- | --- | --- | --- | --- | --- | --- | --- | --- | --- | --- |
| lipocalin mutein of SEQ ID NO: 24 (designed binder, also called hNGAL mutein) QDSTSDLIPAPPLSKVPLQQNFQDNQFQGKWYVVGVAGNAILRTDKQPAKMFATIYELKEDKSYDVTSVRFEAKSCKYTIKTFVPGSQPGEFTAGNIKSAPGQTSTLVRVVSTNYNQHAMVFFKHVSQNREIFVITLYGRTKELTSELKENFIRFSKSLGLPENHIVFPVPIDQCIDG | 90 | 1.41e-05 | 157000 | 135 | 2.63e-05 | 195000 | 255 | 3.51e-05 | 138000 | 34 | 1.16e-05 | 299000 | – |
| lipocalin mutein of SEQ ID NO: 31 (designed binder, also called hNGAL mutein; not shown: C-terminal His-tag) QDSTSDLIPAPPLSKVPLQQNFQDNQFQGKWYVVGWAGNVKLREDKQPQKMSATIYELKEDKSYDVTEVVFEQKKCHYIIKTFVPGSQPGEFTAGDIKSPPGYTSSLVRVVSTNYNQHAMVFFKKVSQNREFFWITLYGRTKELTSELKENFIRFSKSLGLPENHIVFPVPIDQCIDG | 249 | 4.85e-05 | 195000 | 452 | 7.31e-05 | 162000 | 1890 | 0.000423 | 223000 | 1580 | 0.000444 | 281000 | – |
| lipocalin mutein of SEQ ID NO: 35 (designed binder, also called hNGAL mutein; not shown: C-terminal His-tag) QDSTSDLIPAPPLSKVPLQQNFQDNQFQGKWYVVGWAGNVKLREDKQPLKMSATIYELKEDKSYDVTEVVFEQKKCHYIIKTFVPGSQPGEFTAGDIKSPPGYTSSLVRVVSTNYNQHAMVFFKKVSQNREFFWITLYGRTKELTSELKENFIRFSKSLGLPENHIVFPVPIDQCIDG | 550 | 5.94e-05 | 108000 | – | – | – | 1420 | 0.000273 | 193000 | 2240 | 0.000287 | 128000 | – |
| fusion protein of SEQ ID NO: 68 (designed binder, not shown: C-terminal His-tag) QDSTSDLIPAPPLSKVPLQQNFQDNQFQGKWYVVGLAGNAILREDKQPAKMFATIYELKEDKSYDVTSVRFEAKSCSYTSKTFVPGSQPGEFTAGNIKSAPGQTSTLVRVVSTNYNQHAMVFFKHVSQNRETFVITLYGRTKELTSELKENFIRFSKSLGLPENHIVFPVPIDQCIDGGGGGSGGGGSGGGGSQDSTSDLIPAPPLSKVPLQQNFQDNQFQGKWYVVGWAGNVKLREDKQPQKMSATIYELKEDKSYDVTEVVFEQKKCHYIIKTFVPGSQPGEFTAGDIKSPPGYTSSLVRVVSTNYNQHAMVFFKKVSQNREFFWITLYGRTKELTSELKENFIRFSKSLGLPENHIVFPVPIDQCIDG | – | – | – | – | – | – | – | – | – | – | – | – | 560 |
| fusion protein of SEQ ID NO: 73 (designed binder, not shown: C-terminal His-tag) QDSTSDLIPAPPLSKVPLQQNFQDNQFQGKWYVVGLAGNAILREDKYPAKMFATIYELKEDKSYDVTSVRFENKSCVYTSKTFVPGSQPGEFTTGNIKSAPGQTSTLVRVVSTNYNQHAMVFFKHVSQNREFFVITLYGRTKELTSELKENFIRFSKSLGLPENHIVFPVPIDQCIDGGGGGSGGGGSGGGGSQDSTSDLIPAPPLSKVPLQQNFQDNQFQGKWYVVGWAGNVKLREDKQPQKMSATIYELKEDKSYDVTEVVFEQKKCHYIIKTFVPGSQPGEFTAGDIKSPPGYTSSLVRVVSTNYNQHAMVFFKKVSQNREFFWITLYGRTKELTSELKENFIRFSKSLGLPENHIVFPVPIDQCIDG | – | – | – | – | – | – | – | – | – | – | – | – | 830 |
| fusion protein of SEQ ID NO: 62 (designed binder, not shown: C-terminal His-tag) QDSTSDLIPAPPLSKVPLQQNFQDNQFQGKWYVVGRAGNNQLREDKSPPKMWATIYELKEDKSYDVTHVHFSTKKCRYIIDTFVPGSQPGEFTAGAIKSGPGLTSPLVRVVSTNYNQHAMVFFKWVTQNREWFTITLYGRTKELTSELKENFIRFSKSLGLPENHIVFPVPIDQCIDGGGGGSGGGGSGGGGSQDSTSDLIPAPPLSKVPLQQNFQDNQFQGKWYVVGWAGNVKLREDKQPQKMSATIYELKEDKSYDVTEVVFEQKKCHYIIKTFVPGSQPGEFTAGDIKSPPGYTSSLVRVVSTNYNQHAMVFFKKVSQNREFFWITLYGRTKELTSELKENFIRFSKSLGLPENHIVFPVPIDQCIDG | – | – | – | – | – | – | – | – | – | – | – | – | 630 |

Results, then the binder that gave them:

| Kd [1] [pM] | koff [1] [s⁻¹] | kon [1] [M⁻¹ s⁻¹] | Kd (cynomolgus CTGF) [pM] | koff (cynomolgus CTGF) [s⁻¹] | kon (cynomolgus CTGF) [M⁻¹ s⁻¹] | Kd [2] [pM] | koff [2] [s⁻¹] | kon [2] [M⁻¹ s⁻¹] | Kd (mouse CTGF (Abbexa)) [pM] | koff (mouse CTGF (Abbexa)) [s⁻¹] | kon (mouse CTGF (Abbexa)) [M⁻¹ s⁻¹] | EC50 [3] [pM] | Binder |
| --- | --- | --- | --- | --- | --- | --- | --- | --- | --- | --- | --- | --- | --- |
| 1130 | 0.000169 | 150000 | 1720 | 0.000238 | 139000 | – | – | – | 11900 | 0.00286 | 240000 | – | lipocalin mutein of SEQ ID NO: 34 (designed binder, also called hNGAL mutein) QDSTSDLIPAPPLSKVPLQQNFQDNQFQGKWYVVGWAGNVILREDKQPFKMSATIYELKEDKSYDVTEVVFEQKKCHYIIKTFVPGSQPGEFTLGDIKSPPGETSTLVRVVSTNYNQHAMVFFKKVSQNREFFWITLYGRTKELTSELKENFIRFSKSLGLPENHIVFPVPIDQCIDG |
| 420 | 6.95e-05 | 165000 | 695 | 9.77e-05 | 141000 | – | – | – | 1680 | 0.00052 | 310000 | – | lipocalin mutein of SEQ ID NO: 36 (designed binder, also called hNGAL mutein) QDSTSDLIPAPPLSKVPLQQNFQDNQFQGKWYVVGWAGNVKLREDKQPAKMSATIYELKEDKSYDVTEVVFEQKKCHYIIKTFVPGSQPGEFTAGDIKSPPGYTSSLVRVVSTNYNQHAMVFFKKVGQNREFFWITLYGRTKELTSELKENFIRFSKSLGLPENHIVFPVPIDQCIDG |
| – | – | – | – | – | – | – | – | – | – | – | – | 940 | fusion protein of SEQ ID NO: 71 (designed binder, not shown: C-terminal His-tag) QDSTSDLIPAPPLSKVPLQQNFQDNQFQGKWYVVGLAGNAILREDKYPAKMFATIYELKEDKSYDVTSVRFENKSCVYTIKTFVPGSQPGEFTTGNIKSAPGQTSTLVRVVSTNYNQHAMVFFKHVSQNREFFVITLYGRTKELTSELKENFIRFSKSLGLPENHIVFPVPIDQCIDGGGGGSGGGGSGGGGSQDSTSDLIPAPPLSKVPLQQNFQDNQFQGKWYVVGWAGNVKLREDKQPQKMSATIYELKEDKSYDVTEVVFEQKKCHYIIKTFVPGSQPGEFTAGDIKSPPGYTSSLVRVVSTNYNQHAMVFFKKVSQNREFFWITLYGRTKELTSELKENFIRFSKSLGLPENHIVFPVPIDQCIDG |
